In patent US11278600B2, “Human alpha-galactosidase variants” (Codexis, Inc., priority 2014, dated 2022):
Residue numbers refer to the chain shown, from its start.

Key:
Assay type in all cases: biochemical
[1] = HTP-analysis of supernatants pretreated with acid (MUGal hydrolysis); details: challenge at pH 4.2; activity of the variant/activity of WT GLA (SEQ ID NO: 5); yeast supernatant
In short: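 MUGal hydrolysis was tracked by fluorescence (Ex 355 nm, Em 448 nm) after a 30-180 min reaction at 37° C. in pH 4.8 McIlvaine/citrate buffer, stopped with 1 M sodium carbonate. Beforehand, yeast (INVSc1) culture supernatants carrying GLA variants were held 1-3 h at 37° C. in acidic McIlvaine buffer, pH 3.3-4.3.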

[2] = HTP-analysis of yeast culture supernatants, no challenge (MUGal hydrolysis); details: activity of the variant/activity of WT GLA (SEQ ID NO: 5), yeast supernatant
In short: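 GLA variants expressed in yeast INVSc1, secreted into SD-Ura broth over 66-84 h at 30° C; clarified supernatants tested without challenge. Supernatant mixed with McIlvaine buffer pH 4.8 and 2 mM MUGal (citrate/KCl, pH 4.6), 37° C for 30-180 min, carbonate-quenched, fluorescence Ex 355/Em 448 nm.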

[3] = HTP-analysis of supernatants pretreated with base (MUGal hydrolysis); details: challenge at pH 7.1; activity of the variant/activity of WT GLA (SEQ ID NO: 5); yeast supernatant
In short: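 Supernatants from INVSc1 yeast expressing GLA variants (SD-Ura, 66-84 h, 30° C) were mixed with McIlvaine buffer pH 7.0-8.2 or 200 mM sodium bicarbonate pH 9.1-9.7 and held 1-18 h at 37° C. Residual activity was then measured on MUGal at pH 4.8/4.3, 37° C, 30-180 min, by fluorescence (Ex 355/Em 448 nm).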

B1: 177 (protein)
chain: LDNGLARTPTMGWLHWERFMCNLDCQEEPDSCISEKLFMEMAELMVSEGWKDAGYEYLCIDDCWMAPQRDSEGRLQADPQRFPHGIRQLANYVHDKGLKLGIYADVGNKTCAGFPGSFGYYDIDAQTFADWGVDLLKFDGCYCDSLENLADGYKHMSLALNRTGRSIVYSCEWPLYMWPFQKPNYTEIRQYCNHWRNFADIDDSWKSIKSILDWTSFNQERIVDVAGPGGWNDPDMLVIGNFGLSWNQQVTQMALWAIMAAPLFMSNDLRHISPQAKALLQDKDVIAINQDPLGKQGYQLRQGDNFEVWERPLSGLAWAVAMINRQEIGGPRSYTIAVASLGKGVACNPACFITQLLPVKRKLGFYEWTSRLRSHINPTGTVLLQLENTMQMSKDLLL
modifications: Synthetic Polypeptide sequence of Variant No. 177 of mature Human GLA
[1]
  Relative Activity of GLA Variants After Challenge at pH 4.2: ++ (++ = >1.5 to 2.5 relative activity over WT GLA (SEQ ID NO: 5))
[2]
  Relative Activity of GLA Variants After No Challenge (NC): + (+ = 0.5 to 1.5 relative activity over WT GLA (SEQ ID NO: 5))
[3]
  Relative Activity of GLA Variants After Challenge at pH 7.1: + (+ = 0.5 to 1.5 relative activity over WT GLA (SEQ ID NO: 5))

B2: 182 (protein)
chain: B1 chain with D95S, T389S
modifications: Synthetic Polypeptide sequence of Variant No. 182 of mature Human GLA
[1]
  Relative Activity of GLA Variants After Challenge at pH 4.2: + (+ = 0.5 to 1.5 relative activity over WT GLA (SEQ ID NO: 5))
[2]
  Relative Activity of GLA Variants After No Challenge (NC): ++ (++ = >1.5 to 2.5 relative activity over WT GLA (SEQ ID NO: 5))
[3]
  Relative Activity of GLA Variants After Challenge at pH 7.1: + (+ = 0.5 to 1.5 relative activity over WT GLA (SEQ ID NO: 5))

B3: 180 (protein)
chain: B1 chain with D95S, T369D
modifications: Synthetic Polypeptide sequence of Variant No. 180 of mature Human GLA
[1]
  Relative Activity of GLA Variants After Challenge at pH 4.2: ++ (++ = >1.5 to 2.5 relative activity over WT GLA (SEQ ID NO: 5))
[2]
  Relative Activity of GLA Variants After No Challenge (NC): ++ (++ = >1.5 to 2.5 relative activity over WT GLA (SEQ ID NO: 5))
[3]
  Relative Activity of GLA Variants After Challenge at pH 7.1: +++ (+++ = >2.5 relative activity over WT GLA (SEQ ID NO: 5))

B4: 185 (protein)
chain: B1 chain with D95S, V168L
modifications: Synthetic Polypeptide sequence of Variant No. 185 of mature Human GLA
[1]
  Relative Activity of GLA Variants After Challenge at pH 4.2: ++ (++ = >1.5 to 2.5 relative activity over WT GLA (SEQ ID NO: 5))
[2]
  Relative Activity of GLA Variants After No Challenge (NC): + (+ = 0.5 to 1.5 relative activity over WT GLA (SEQ ID NO: 5))
[3]
  Relative Activity of GLA Variants After Challenge at pH 7.1: + (+ = 0.5 to 1.5 relative activity over WT GLA (SEQ ID NO: 5))

B5: 190 (protein)
chain: B1 chain with D95S, W178H
modifications: Synthetic Polypeptide sequence of Variant No. 190 of mature Human GLA
[1]
  Relative Activity of GLA Variants After Challenge at pH 4.2: + (+ = 0.5 to 1.5 relative activity over WT GLA (SEQ ID NO: 5))
[2]
  Relative Activity of GLA Variants After No Challenge (NC): ++ (++ = >1.5 to 2.5 relative activity over WT GLA (SEQ ID NO: 5))
[3]
  Relative Activity of GLA Variants After Challenge at pH 7.1: ++ (++ = >1.5 to 2.5 relative activity over WT GLA (SEQ ID NO: 5))

B6: 191 (protein)
chain: B1 chain with D95S, W178S
modifications: Synthetic Polypeptide sequence of Variant No. 191 of mature Human GLA
[1]
  Relative Activity of GLA Variants After Challenge at pH 4.2: ++ (++ = >1.5 to 2.5 relative activity over WT GLA (SEQ ID NO: 5))
[2]
  Relative Activity of GLA Variants After No Challenge (NC): + (+ = 0.5 to 1.5 relative activity over WT GLA (SEQ ID NO: 5))
[3]
  Relative Activity of GLA Variants After Challenge at pH 7.1: + (+ = 0.5 to 1.5 relative activity over WT GLA (SEQ ID NO: 5))

B7: 189 (protein)
chain: B1 chain with V93I, D95S
modifications: Synthetic Polypeptide sequence of Variant No. 189 of mature Human GLA
[1]
  Relative Activity of GLA Variants After Challenge at pH 4.2: + (+ = 0.5 to 1.5 relative activity over WT GLA (SEQ ID NO: 5))
[2]
  Relative Activity of GLA Variants After No Challenge (NC): + (+ = 0.5 to 1.5 relative activity over WT GLA (SEQ ID NO: 5))
[3]
  Relative Activity of GLA Variants After Challenge at pH 7.1: + (+ = 0.5 to 1.5 relative activity over WT GLA (SEQ ID NO: 5))

B8: 179 (protein)
chain: B1 chain with D95Q
modifications: Synthetic Polypeptide sequence of Variant No. 179 of mature Human GLA
[1]
  Relative Activity of GLA Variants After Challenge at pH 4.2: + (+ = 0.5 to 1.5 relative activity over WT GLA (SEQ ID NO: 5))
[2]
  Relative Activity of GLA Variants After No Challenge (NC): + (+ = 0.5 to 1.5 relative activity over WT GLA (SEQ ID NO: 5))
[3]
  Relative Activity of GLA Variants After Challenge at pH 7.1: + (+ = 0.5 to 1.5 relative activity over WT GLA (SEQ ID NO: 5))

B9: 183 (protein)
chain: B1 chain with D95S, V133I
modifications: Synthetic Polypeptide sequence of Variant No. 183 of mature Human GLA
[1]
  Relative Activity of GLA Variants After Challenge at pH 4.2: + (+ = 0.5 to 1.5 relative activity over WT GLA (SEQ ID NO: 5))
[2]
  Relative Activity of GLA Variants After No Challenge (NC): + (+ = 0.5 to 1.5 relative activity over WT GLA (SEQ ID NO: 5))
[3]
  Relative Activity of GLA Variants After Challenge at pH 7.1: + (+ = 0.5 to 1.5 relative activity over WT GLA (SEQ ID NO: 5))

B10: 178 (protein)
chain: B1 chain with D95E
modifications: Synthetic Polypeptide sequence of Variant No. 178 of mature Human GLA
[1]
  Relative Activity of GLA Variants After Challenge at pH 4.2: +++ (+++ = >2.5 relative activity over WT GLA (SEQ ID NO: 5))
[2]
  Relative Activity of GLA Variants After No Challenge (NC): ++ (++ = >1.5 to 2.5 relative activity over WT GLA (SEQ ID NO: 5))
[3]
  Relative Activity of GLA Variants After Challenge at pH 7.1: ++ (++ = >1.5 to 2.5 relative activity over WT GLA (SEQ ID NO: 5))

B11: 40 (protein)
chain: B1 chain with D95S, L396R
modifications: Synthetic Polypeptide sequence of Variant No. 40 of mature Human GLA
[1]
  Relative Activity of GLA Variants After Challenge at pH 4.2: ++ (++ = >1.5 to 2.5 relative activity over WT GLA (SEQ ID NO: 5))
[2]
  Relative Activity of GLA Variants After No Challenge (NC): ++ (++ = >1.5 to 2.5 relative activity over WT GLA (SEQ ID NO: 5))
[3]
  Relative Activity of GLA Variants After Challenge at pH 7.1: ++ (++ = >1.5 to 2.5 relative activity over WT GLA (SEQ ID NO: 5))

B12: 181 (protein)
chain: B1 chain with D95S, T369S
modifications: Synthetic Polypeptide sequence of Variant No. 181 of mature Human GLA
[1]
  Relative Activity of GLA Variants After Challenge at pH 4.2: + (+ = 0.5 to 1.5 relative activity over WT GLA (SEQ ID NO: 5))
[2]
  Relative Activity of GLA Variants After No Challenge (NC): + (+ = 0.5 to 1.5 relative activity over WT GLA (SEQ ID NO: 5))
[3]
  Relative Activity of GLA Variants After Challenge at pH 7.1: + (+ = 0.5 to 1.5 relative activity over WT GLA (SEQ ID NO: 5))

B13: 187 (protein)
chain: B1 chain with D95S, V345Y
modifications: Synthetic Polypeptide sequence of Variant No. 187 of mature Human GLA
[1]
  Relative Activity of GLA Variants After Challenge at pH 4.2: + (+ = 0.5 to 1.5 relative activity over WT GLA (SEQ ID NO: 5))
[2]
  Relative Activity of GLA Variants After No Challenge (NC): + (+ = 0.5 to 1.5 relative activity over WT GLA (SEQ ID NO: 5))
[3]
  Relative Activity of GLA Variants After Challenge at pH 7.1: + (+ = 0.5 to 1.5 relative activity over WT GLA (SEQ ID NO: 5))

B14: 184 (protein)
chain: B1 chain with D95S, V168A
modifications: Synthetic Polypeptide sequence of Variant No. 184 of mature Human GLA
[1]
  Relative Activity of GLA Variants After Challenge at pH 4.2: + (+ = 0.5 to 1.5 relative activity over WT GLA (SEQ ID NO: 5))
[2]
  Relative Activity of GLA Variants After No Challenge (NC): ++ (++ = >1.5 to 2.5 relative activity over WT GLA (SEQ ID NO: 5))
[3]
  Relative Activity of GLA Variants After Challenge at pH 7.1: + (+ = 0.5 to 1.5 relative activity over WT GLA (SEQ ID NO: 5))

B15: 186 (protein)
chain: B1 chain with D95S, V345N
modifications: Synthetic Polypeptide sequence of Variant No. 186 of mature Human GLA
[1]
  Relative Activity of GLA Variants After Challenge at pH 4.2: ++ (++ = >1.5 to 2.5 relative activity over WT GLA (SEQ ID NO: 5))
[2]
  Relative Activity of GLA Variants After No Challenge (NC): ++ (++ = >1.5 to 2.5 relative activity over WT GLA (SEQ ID NO: 5))
[3]
  Relative Activity of GLA Variants After Challenge at pH 7.1: +++ (+++ = >2.5 relative activity over WT GLA (SEQ ID NO: 5))

B16: 188 (protein)
chain: B1 chain with D95S, V359E
modifications: Synthetic Polypeptide sequence of Variant No. 188 of mature Human GLA
[1]
  Relative Activity of GLA Variants After Challenge at pH 4.2: + (+ = 0.5 to 1.5 relative activity over WT GLA (SEQ ID NO: 5))
[2]
  Relative Activity of GLA Variants After No Challenge (NC): + (+ = 0.5 to 1.5 relative activity over WT GLA (SEQ ID NO: 5))
[3]
  Relative Activity of GLA Variants After Challenge at pH 7.1: + (+ = 0.5 to 1.5 relative activity over WT GLA (SEQ ID NO: 5))
